# Source: patent US20160251404A1 (Molecular Partners, published 2016)
# Read-outs that look alike come from different tables or passages of the source.
# What was measured:
# [1] = target: T1, recombinant human HGF (hepatocyte growth factor) (human, UniProt P14210 32-728); experiment: cell-based or functional assay
# [2] = target: T1, recombinant human HGF (hepatocyte …); experiment: cell-based or functional assay; remark: listed apart in the source
# [3] = target: T1, recombinant human HGF (hepatocyte …); experiment: SPR (ProteOn), human HGF immobilized on GLC chip, DARPin injected, PBS 0.005% Tween 20
# Protocol: SPR was measured using a ProteOn instrument (BioRad) and measurement was performed according standard procedures known to the person skilled in the art. The running buffer was PBS, pH 7.4, containing 0.005% Tween 20®. Human HGF was covalently immobilized on a GLC chip (BioRad) to a level of about 5000 resonance units (RU). The interaction of DARPin and HGF was then measured by injecting 200 μl running buffer (PBS containing 0.005% Tween®) containing serial dilutions of DARPins of concentration of […] (on-rate measurement), followed by a running buffer flow for 25 minutes at a constant flow rate of 100 μl/min (off-rate measurement). The signals (i.e. resonance unit (RU) values) of the interspots and a reference injection (i.e. injection of running buffer only) were subtracted from the RU traces obtained after injection of DARPin (double-referencing). From the SPR traces obtained from the on-rate and off-rate measurements the on- and off-rate of the corresponding DARPin HGF interaction can be determined. […] Dissociation constants (Kd) were calculated from the estimated on- and off-rates using standard procedures known to the person skilled in the art. […] As an example, Table 1 summarizes the Kd values for some of the selected DARPins.
# [4] = target: T1, recombinant human HGF (hepatocyte …); experiment: cell-based or functional assay; remark: listed apart in the source
# [5] = target: T1, recombinant human HGF (hepatocyte …); experiment: receptor competition ELISA: DARPin premixed with human HGF, binding of HGF to coated c-Met Fc chimera detected with anti-HGF antibody
# Protocol: The potency of anti-HGF DARPins to inhibit the binding of human HGF to its receptor c-Met was determined in a receptor competition ELISA. c-Met (Fc chimera; RnD systems, USA, 358-MT-100/CF) was pre-coated on a microplate. DARPins and HGF were premixed in PBSTC and incubated at room temperature for 0.5 hours. These preincubation mixtures were then transferred into the with c-Met precoated wells and any HGF that was not blocked by the DARPins was bound by the immobilized receptor. After washing away any unbound substances, an polyclonal antibody specific for HGF (RnD systems, USA, AF-294-NA) was added to the wells. After washing away any unbound substances, an horse radish peroxidase conjugated antibody (Novus Biologicals, USA, NB7357) binding to the polyclonal antibody specific for HGF was added to the wells. Following a wash to remove any unbound antibody-enzyme reagent, a substrate solution (Roche, Switzerland, 11484281001) was added to the wells and color was developing in proportion to the amount of HGF bound. The color development was stopped and the intensity of the color was measured at 405 nm. […] Example titration curves are given for a set of DARPins in FIG. 5. IC₅₀ values were calculated from such titration curves obtained as described above using standard procedures known to the person skilled in the art.
# T1 sequence (P14210 32-728 limits assumed): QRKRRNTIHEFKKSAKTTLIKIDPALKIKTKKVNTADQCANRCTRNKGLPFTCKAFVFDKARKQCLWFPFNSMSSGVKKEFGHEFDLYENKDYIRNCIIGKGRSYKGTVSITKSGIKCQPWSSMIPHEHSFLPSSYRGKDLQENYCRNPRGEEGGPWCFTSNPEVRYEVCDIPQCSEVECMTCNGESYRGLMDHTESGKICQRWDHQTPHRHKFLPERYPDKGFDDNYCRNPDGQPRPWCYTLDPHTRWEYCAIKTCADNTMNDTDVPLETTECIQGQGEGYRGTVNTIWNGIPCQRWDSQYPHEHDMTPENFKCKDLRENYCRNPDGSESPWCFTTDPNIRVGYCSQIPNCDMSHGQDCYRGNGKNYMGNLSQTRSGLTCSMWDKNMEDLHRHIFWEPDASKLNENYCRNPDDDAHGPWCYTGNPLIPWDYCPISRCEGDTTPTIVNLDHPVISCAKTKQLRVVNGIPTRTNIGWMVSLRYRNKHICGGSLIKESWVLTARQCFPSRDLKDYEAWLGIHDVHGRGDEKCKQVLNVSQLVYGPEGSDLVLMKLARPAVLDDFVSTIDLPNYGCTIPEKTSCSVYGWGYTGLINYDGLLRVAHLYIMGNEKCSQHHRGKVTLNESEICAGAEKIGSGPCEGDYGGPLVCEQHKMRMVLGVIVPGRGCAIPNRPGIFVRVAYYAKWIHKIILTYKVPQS
% inhibition of HGF stimulated c-Met phosphorylation in A549 cells [1] [%],IC50 of HGF stimulated c-Met phosphorylation in A549 cells [1] [nM],IC50 of U87 cell proliferation (BrdU) [2] [nM],Kd [3] [nM],IC50 of U87 cell proliferation (BrdU) [4] [nM],IC50 [5] [nM],Binder
100,0.2,137,0.148,,,DARPin #33 (designed binder) MRGSHHHHHHGSDLGKKLLEAARAGQDDEVRILMANGADVNAHDYSGFTPLHLAAYYGHLEIVEVLLKHGADVNAFDDWGHTPLHLAARYGHLEIVEVLLKYGADVNAEDTEGYTPLHLAAMDGHLEIVEVLLKNGADVNAQDKFGKTAFDISIDNGNEDLAEILQKLN
89,1.63,,0.578,,,DARPin #58 (designed binder) MRGSHHHHHHGSDLGKKLLEAARAGQDDEVRILMANGADVNAHDYVGLTPLHLAASIGHLEIVEVLLKYGADVNASDYNGFTPLYLAANNGHLEIVEVLLKNGADVNATDSFGYTPLHLAAHYGHLEIVEVLLKNGADVNAQDKFGKTAFDISIDNGNEDLAEILQKLN
98,0.32,82,0.084,,,DARPin #42 (designed binder) MRGSHHHHHHGSDLGKKLLEAARAGQDDEVRILMANGADVNAKYEDGLTPLHLAAFYGHLEIVEVLLKHGADVNATDAWGHTPLHLAAHYGHLEIVEVLLKYGADVNAIDTLGYTPLHLAANFGHLEIVEVLLKNGADVNAQDKFGKTAFDISIDNGNEDLAEILQKLN
99,0.13,113,,,,DARPin #41 (designed binder) MRGSHHHHHHGSDLGKKLLEAARAGQDDEVRILMANGADVNAKYEDGLTPLHLAAFYGHLEIVEVLLRHGADVNATDAWGHTPLHLAAYLGHLEIVEVLLKYGADVNAEDTEGYTPLHLAAMDGHLEIIEVLLKHGADVNAQDKFGKTAFDISIDNGNEDLAEILQKLN
101,0.16,71,0.025,72,1.36,DARPin #43 (designed binder) MRGSHHHHHHGSDLGKKLLEAARAGQDDEVRILMANGADVNAKYEDGLTPLHLAAFYGHLEIVEVLLKHGADVNATDAWGHTPLHLAAYYGHLEIVEVLLKYGADVNTHDKEGMTALHLAALTGHLEIVEVLLKNGADVNAQDKFGKTAFDISIDNGNEDLAEILQKLN
95,0.1,,0.016,,0.91,DARPin #48 (designed binder) MRGSHHHHHHGSDLGKKLLEAARAGQDDEVRILMANGADVNAKDRFGDTPLHLAADIGHLKIVEVLLKHGADVNAEDWFGNTPLHLAASMGHLEIVEVLLKYGADVNAMDDYGNTPLHLAANTGHLEIVEVLLKHGADVNAQDKFGKTAFDISIDNGNEDLAEILQKLN
81,0.01,116,0.051,,0.62,DARPin #51 (designed binder) MRGSHHHHHHGSDLGKKLLEAARAGQDDEVRILLKAGADVNAKDRYGDTPLHLAADIGHLEIVEVLLKAGADVNAEDYFGNTPLHLAASYGHLEIVEVLLKAGADVNAKDDYGNTPLHLAANTGHLEIVEVLLKAGADVNAQDKSGKTPADLAADAGHEDIAEVLQKLN
95,0.07,400,0.011,,1.33,DARPin #37 (designed binder) MRGSHHHHHHGSDLGKKLLEAARAGQDDEVRILMANGADVNATDLTGFTPLHLAAYYGHLEIVEVLLKYGADVNADDRYGLTPLHLAANTGHLEIVEVLLKNGADVNASDSVGTTLLHLAAYIGHPEIVEVLLKYGADVNAQDKFGKTAFDISIDNGNEDLAEILQKLN
100,1.72,730,16.6,,1.71,DARPin #57 (designed binder) MRGSHHHHHHGSDLGKKLLEAARAGQDDEVRILMANGADVNAHDYLGLTPLHLAASDGHLEIVEVLLKHGADVNAYDYNGLTPLHLAANNGHLEIVEVLLKYGADVNAFDVAGYTPLHLAAYFGHLEIVEVLLKYGADVNAQDKFGKTAFDISIDNGNEDLAEILQKLN
82,0.39,,0.16,,,DARPin #61 (designed binder) MRGSHHHHHHGSDLGKKLLEAARAGQDDEVRILMANGADVNAEDYLGHTPLHLAASTGHLEIVEVLLKYGADVNAKDRNGLTPLYLAANNGHLEIVEDLLKYGADVNADDDNGTTPLHLAAIFGHLEIVEVLLKYGADVNAQDKFGKTAFDISIDNGNEDLAEILQKLN
100,0.85,3280,0.528,,,DARPin #59 (designed binder) MRGSHHHHHHGSDLGKKLLEAARAGQDDEVRILMANGADVNADDSLGLTPLHLAAASGHLEIVEVLLKNGADVNAVDQNSFTPLYLAANNGHLEIVEVLLKNGADVNAFDWHGTTPLHLAAMFGHLEIVEVLLKNGADVNAQDKFGKTAFDISIDNGNEDLAEILQKLN
94,0.05,78,0.026,,0.95,DARPin #60 (designed binder) MRGSHHHHHHGSDLGMKLLEAARAGQDDEVRILMANGADVNAHDTWGLTPLHLAAFHGHQEIVEVLLKHGADVNAQDFYGKTPLHLAALRGHLEIVEVLLKYGADVNAQDQFGKTAFDISIDNGNEDLAEILQKLN
72,0.53,,0.736,,,DARPin #56 (designed binder) MRGSHHHHHHGSDLGKKLLEAARAGQDDEVRILMANGADVNANDFLGLTPLHLAASTGHLEIVEVLLKYGADVNAIDAYGHTPLHLAANNGHLEIVEVLLKYGADVNAIDHFGYTPLHLAAMFGHLEIVEVLLKNGADVNAQDKFGKTAFDISIDNGNEDLAEILQKLN
88,2.59,,1.6,,,DARPin #38 (designed binder) MRGSHHHHHHGSDLGKKLLEAARAGQDDEVRILMANGADVNATDANGFTPLHLAAFYGHLEIVEVLLKYGADVNAYDNFGLTPLHLAASYGHLEIVEVLLKNGADVYAQDKFGKTAFDISIDNGNEDLAEILQKLN
